Legend:
Assay in all cases: Kinase Profiling Assay
Format in all cases: biochemical
Conditions in all cases: 100 μM
[1] = target: Hck(h) (Homo sapiens, UniProt P08631)
[2] = target: Met(Y1248H)(h) (Homo sapiens, UniProt P08581, Y1230H)
[3] = target: T1, PKD2(h) (Homo sapiens, UniProt Q9BZL6)
T1 sequence (Q9BZL6 1-878): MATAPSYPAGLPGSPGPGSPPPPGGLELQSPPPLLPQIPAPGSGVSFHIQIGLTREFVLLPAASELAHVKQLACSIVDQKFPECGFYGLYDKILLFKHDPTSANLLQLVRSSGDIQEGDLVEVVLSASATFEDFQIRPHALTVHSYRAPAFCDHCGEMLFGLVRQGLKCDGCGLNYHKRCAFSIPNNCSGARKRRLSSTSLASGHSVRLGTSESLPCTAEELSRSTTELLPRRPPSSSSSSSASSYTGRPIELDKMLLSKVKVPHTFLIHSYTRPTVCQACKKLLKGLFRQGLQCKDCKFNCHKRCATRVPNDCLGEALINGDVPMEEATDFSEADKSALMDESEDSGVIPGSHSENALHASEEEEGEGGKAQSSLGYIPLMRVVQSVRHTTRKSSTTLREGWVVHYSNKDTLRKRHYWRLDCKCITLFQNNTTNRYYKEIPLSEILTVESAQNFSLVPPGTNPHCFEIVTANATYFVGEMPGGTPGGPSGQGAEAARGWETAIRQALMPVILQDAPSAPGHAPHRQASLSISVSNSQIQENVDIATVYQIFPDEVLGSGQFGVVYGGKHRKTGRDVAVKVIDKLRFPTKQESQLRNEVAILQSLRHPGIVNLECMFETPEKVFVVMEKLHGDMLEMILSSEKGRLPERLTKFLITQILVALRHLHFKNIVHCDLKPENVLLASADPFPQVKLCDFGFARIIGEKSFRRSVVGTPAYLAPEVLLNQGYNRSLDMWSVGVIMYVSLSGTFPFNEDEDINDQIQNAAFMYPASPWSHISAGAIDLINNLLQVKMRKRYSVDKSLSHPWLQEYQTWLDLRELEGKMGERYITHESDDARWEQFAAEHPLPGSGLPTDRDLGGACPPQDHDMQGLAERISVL

[4] = target: T2, SAPK3(h) (Homo sapiens, UniProt P53778)
T2 sequence (P53778 1-367): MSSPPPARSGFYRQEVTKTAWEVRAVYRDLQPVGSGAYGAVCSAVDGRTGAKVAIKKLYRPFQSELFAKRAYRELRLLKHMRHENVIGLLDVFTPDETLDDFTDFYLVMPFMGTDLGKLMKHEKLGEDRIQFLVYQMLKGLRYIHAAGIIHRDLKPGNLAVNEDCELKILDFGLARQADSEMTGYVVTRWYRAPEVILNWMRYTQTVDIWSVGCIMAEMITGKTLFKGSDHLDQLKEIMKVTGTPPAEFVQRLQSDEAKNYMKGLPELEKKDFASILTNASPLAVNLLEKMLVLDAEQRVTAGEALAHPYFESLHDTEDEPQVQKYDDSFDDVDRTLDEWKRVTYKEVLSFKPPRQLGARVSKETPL

[5] = target: T3, MST1(h) (Homo sapiens, UniProt Q13043)
T3 sequence (Q13043 1-487): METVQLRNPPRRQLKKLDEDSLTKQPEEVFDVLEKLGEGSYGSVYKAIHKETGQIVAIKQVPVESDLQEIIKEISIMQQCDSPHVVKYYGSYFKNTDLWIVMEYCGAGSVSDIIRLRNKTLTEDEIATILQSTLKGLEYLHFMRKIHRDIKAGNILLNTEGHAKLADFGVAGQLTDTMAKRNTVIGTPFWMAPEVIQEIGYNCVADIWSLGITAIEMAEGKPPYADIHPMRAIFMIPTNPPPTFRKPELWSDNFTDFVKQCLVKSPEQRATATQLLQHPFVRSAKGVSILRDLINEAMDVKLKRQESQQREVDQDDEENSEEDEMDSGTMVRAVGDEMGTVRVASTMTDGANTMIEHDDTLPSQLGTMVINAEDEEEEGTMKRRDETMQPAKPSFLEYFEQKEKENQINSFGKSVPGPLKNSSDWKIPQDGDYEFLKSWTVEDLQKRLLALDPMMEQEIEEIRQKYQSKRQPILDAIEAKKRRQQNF

[6] = target: mTOR/FKBP12(h) (Homo sapiens, UniProt P42345)
mTOR/FKBP12(h), sequence (P42345 1362-2549 limits assumed): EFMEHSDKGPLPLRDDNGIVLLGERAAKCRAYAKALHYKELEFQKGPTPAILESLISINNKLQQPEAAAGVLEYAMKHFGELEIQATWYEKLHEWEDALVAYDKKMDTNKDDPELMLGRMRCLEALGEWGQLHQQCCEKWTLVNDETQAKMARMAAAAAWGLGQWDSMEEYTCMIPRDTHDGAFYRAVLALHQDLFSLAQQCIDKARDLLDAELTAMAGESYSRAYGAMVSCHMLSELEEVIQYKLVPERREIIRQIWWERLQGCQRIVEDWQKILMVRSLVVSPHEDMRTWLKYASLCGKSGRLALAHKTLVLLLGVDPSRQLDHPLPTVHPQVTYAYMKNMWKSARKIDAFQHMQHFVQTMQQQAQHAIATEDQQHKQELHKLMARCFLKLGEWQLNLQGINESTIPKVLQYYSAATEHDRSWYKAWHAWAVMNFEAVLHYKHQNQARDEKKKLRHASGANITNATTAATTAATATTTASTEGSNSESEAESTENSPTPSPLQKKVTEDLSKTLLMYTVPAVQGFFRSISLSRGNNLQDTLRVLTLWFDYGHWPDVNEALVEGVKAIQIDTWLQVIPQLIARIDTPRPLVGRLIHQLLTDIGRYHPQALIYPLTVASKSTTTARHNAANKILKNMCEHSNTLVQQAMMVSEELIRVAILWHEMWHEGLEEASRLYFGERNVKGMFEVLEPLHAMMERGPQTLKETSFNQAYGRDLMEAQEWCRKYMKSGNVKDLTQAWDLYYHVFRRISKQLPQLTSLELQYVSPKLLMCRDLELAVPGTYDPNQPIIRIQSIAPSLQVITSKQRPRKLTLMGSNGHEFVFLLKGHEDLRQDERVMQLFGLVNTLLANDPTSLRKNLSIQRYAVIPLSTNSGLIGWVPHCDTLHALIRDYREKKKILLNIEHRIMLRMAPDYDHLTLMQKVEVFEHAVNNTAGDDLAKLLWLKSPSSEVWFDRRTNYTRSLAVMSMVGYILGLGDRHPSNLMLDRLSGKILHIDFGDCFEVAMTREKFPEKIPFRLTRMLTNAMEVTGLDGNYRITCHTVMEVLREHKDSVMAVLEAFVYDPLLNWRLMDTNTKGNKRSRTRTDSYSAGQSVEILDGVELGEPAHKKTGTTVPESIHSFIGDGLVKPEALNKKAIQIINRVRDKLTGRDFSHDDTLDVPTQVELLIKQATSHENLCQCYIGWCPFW

[7] = target: MSK1(h) (Homo sapiens, UniProt O75582)
MSK1(h), sequence (O75582 whole entry): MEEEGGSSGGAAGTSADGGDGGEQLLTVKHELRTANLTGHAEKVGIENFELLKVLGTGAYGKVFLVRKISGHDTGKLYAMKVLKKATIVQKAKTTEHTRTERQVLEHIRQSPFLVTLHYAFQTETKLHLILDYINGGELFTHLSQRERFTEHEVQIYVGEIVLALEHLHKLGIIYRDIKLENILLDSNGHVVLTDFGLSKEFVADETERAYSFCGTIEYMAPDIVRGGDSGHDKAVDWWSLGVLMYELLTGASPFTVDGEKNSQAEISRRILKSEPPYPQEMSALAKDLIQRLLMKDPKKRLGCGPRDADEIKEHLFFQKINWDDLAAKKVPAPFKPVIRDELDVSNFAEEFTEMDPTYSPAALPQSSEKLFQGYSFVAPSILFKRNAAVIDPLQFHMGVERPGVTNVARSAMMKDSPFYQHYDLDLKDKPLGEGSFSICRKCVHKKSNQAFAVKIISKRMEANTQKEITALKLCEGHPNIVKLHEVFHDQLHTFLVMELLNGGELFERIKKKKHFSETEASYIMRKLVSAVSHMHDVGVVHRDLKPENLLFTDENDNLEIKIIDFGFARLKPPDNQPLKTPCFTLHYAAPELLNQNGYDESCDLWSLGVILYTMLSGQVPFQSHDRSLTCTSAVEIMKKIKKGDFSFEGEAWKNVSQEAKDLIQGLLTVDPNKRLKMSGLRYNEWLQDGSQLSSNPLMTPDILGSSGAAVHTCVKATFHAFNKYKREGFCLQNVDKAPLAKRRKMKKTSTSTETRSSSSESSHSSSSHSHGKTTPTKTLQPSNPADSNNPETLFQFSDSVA

[8] = target: Flt3(h) (Homo sapiens, UniProt P36888)
[9] = target: AMPKα1(h) (Homo sapiens, UniProt Q13131)
AMPKα1(h), sequence (Q13131 whole entry): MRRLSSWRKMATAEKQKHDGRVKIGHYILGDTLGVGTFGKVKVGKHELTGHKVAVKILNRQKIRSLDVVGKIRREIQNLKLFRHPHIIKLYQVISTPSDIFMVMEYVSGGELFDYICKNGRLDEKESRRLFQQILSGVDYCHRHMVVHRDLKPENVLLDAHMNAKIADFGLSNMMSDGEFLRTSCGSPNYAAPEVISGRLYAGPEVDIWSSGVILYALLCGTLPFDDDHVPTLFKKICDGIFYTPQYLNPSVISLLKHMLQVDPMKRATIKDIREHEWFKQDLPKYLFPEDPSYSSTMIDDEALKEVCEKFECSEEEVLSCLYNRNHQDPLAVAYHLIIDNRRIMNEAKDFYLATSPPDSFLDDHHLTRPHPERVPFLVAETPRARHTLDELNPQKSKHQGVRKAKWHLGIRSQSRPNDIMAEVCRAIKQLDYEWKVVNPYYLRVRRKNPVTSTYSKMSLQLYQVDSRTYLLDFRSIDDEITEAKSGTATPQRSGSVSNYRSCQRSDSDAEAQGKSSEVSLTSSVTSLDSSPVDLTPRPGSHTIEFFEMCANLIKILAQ
AMPKα1(h), sequence (Q9Y478 whole entry partner): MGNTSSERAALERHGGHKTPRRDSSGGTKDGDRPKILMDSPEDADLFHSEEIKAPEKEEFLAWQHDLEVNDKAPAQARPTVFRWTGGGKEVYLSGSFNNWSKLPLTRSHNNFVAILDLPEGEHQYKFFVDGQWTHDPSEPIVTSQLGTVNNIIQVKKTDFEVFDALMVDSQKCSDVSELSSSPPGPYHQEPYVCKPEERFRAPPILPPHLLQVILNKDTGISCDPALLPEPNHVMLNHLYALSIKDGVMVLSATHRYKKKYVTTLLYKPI
AMPKα1(h), sequence (P54619 whole entry partner): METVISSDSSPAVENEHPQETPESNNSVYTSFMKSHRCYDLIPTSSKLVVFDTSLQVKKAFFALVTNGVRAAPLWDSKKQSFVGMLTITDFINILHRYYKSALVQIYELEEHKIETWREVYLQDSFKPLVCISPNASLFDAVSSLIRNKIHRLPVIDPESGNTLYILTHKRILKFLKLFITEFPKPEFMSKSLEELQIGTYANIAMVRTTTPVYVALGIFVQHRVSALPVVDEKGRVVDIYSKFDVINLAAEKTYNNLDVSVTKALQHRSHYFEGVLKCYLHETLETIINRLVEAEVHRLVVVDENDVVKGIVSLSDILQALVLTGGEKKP

Hck(h), sequence (P08631 whole entry): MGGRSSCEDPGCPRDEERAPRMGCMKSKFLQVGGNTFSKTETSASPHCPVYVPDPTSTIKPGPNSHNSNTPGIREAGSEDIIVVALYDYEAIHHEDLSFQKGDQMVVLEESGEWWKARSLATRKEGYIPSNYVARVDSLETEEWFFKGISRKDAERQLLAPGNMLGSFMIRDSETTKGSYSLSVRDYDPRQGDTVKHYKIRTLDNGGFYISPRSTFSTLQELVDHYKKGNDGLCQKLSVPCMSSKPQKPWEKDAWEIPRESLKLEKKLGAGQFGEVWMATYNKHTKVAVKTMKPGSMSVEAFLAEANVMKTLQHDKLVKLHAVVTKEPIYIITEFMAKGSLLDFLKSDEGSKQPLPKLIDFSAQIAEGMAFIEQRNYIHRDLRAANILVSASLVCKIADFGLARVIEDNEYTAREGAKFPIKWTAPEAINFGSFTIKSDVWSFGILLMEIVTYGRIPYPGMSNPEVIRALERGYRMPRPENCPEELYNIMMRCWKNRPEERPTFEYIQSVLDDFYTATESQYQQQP

Sequence | % activity [1] | % activity [2] | % activity [3] | % activity [4] | % activity [5] | % activity [6] | % activity [7] | % activity [8] | % activity [9]
HRRIKAWLKKIKALARQLGVAA [MMI-0500] | 78% | 126% | 10% | 24% | 3% | 140% | 8% | 17% | 35%
YARAAARQARAKALNRQLGVA [MMI-0200] |  | 153% | 78% | 97% | 72% | 118% | 50% | 99% | 108%
KAFAKLAARLYRKALARQLGVAA [MMI-0400] | 72% | 63% | 25% | 79% | 6% | 125% | 28% | 18% | 87%
FAKLAARLYRKALARQLGVAA [MMI-0300] | 72% |  | 33% | 84% | 14% | 145% | 32% | 84% | 71%

Source: patent US20190134153A1, “IMMUNOMODULATORY EFFECT OF INHALED KINASE INHIBITOR PEPTIDES IN LUNG” (MOERAE MATRIX, INC., priority 2017, published 2019)
